Experiments:
Oidium neolycopersici = experiment: Control of powdery mildew on tomato; assay type: in vivo; details: 250, 500, 750 g ai/ha, 5 applications, until one week after the last application
Protocol: Four replicates of 15 tomato plants (9.9 m^2 per plot) were treated with […] of spray solution, corresponding with a spray volume of […], according to local practice. The spray mix contained a concentration of active ingredient as described in Table 5. Five applications were performed spaced 7 days apart. No artificial infection was performed and first spray was placed when first symptoms were observed. The efficacy of 10G11 was compared to that of a non-treated control and the chemical reference Topas (Penconazole). In addition, a chemical rotation of Systhane Forte (Myclobutanil), Ortiva (Azoxystrobin), Signum (Boscalid. Pyraclostrobin) and Topas was evaluated. A seventh treatment replaced part of the chemicals in this chemical rotation by 10G11 as described in Table 5.
The percentage of leaf area affected by the disease (disease severity) was recorded in 10 randomly selected leaves per plot. Percentage incidence (PESINC; % of affected leaves), was calculated based on these values. Assessments were performed on a weekly basis and continued until 1 week after the last application.

Fraction 3 = experiment: Bio-layer interferometry (BLI) binding; set-up: species or system Botrytis cinerea; details: compared to a reference VHH (FIG. 12)
Excerpt: 10G11 binding to Fraction 3 was further confirmed by bio-layer interferometry (BLI). BLI is a label-free optical analytical technique for measuring biomolecular interactions (Kamat et al, 2017. Analytical biochemistry 536: 16-31; Wallner et al. 2013. Journal of Pharmaceutical and Biomedical Analysis 72: 150-154).

Phakopsora pachyrhizi = experiment: Control of soybean rust on soybeans in glasshouse; assay type: in vivo
Protocol: Four replicates of pot-grown soybean plants (4 plants/pot) were sprayed with 125 ml aqueous suspension, containing a concentration of active ingredient of as described in Table 1. Two applications were done spaced 14 days apart. Plants were inoculated once with Phakopsora pachyrhizi two days after the first application (application A) of active ingredient. The growth inhibitory characteristics of 10G11Q were compared to those of a non-antifungal reference VHH molecule, a non-treated control and the systemic chemical Quadris Top SBX (azoxystrobin, difeconazole).
Disease severity is recorded as percent severity on a scale of 0-100%. Recording started when first symptoms appear followed by weekly assessment at least till 3 weeks after the second application (application B) of the active ingredient. Percent severity ratings are separated based on the position on the plant: Percent severity low canopy, Percent severity mid canopy and Percent severity upper canopy to track the progress of the disease well and following the natural development of the disease in nature.
Time indications in the graphs on the x-axis concern the time of recording of disease severity or incidence. These are relative and are indicated by the number of days after application when recording occurred. For example, a recording 13 Days After the second application (application B) will be represented as 13DAB. This code is applicable for FIG. 15 to FIG. 28.

Botrytis cinerea = experiment: Control of Botrytis cinerea on grapevine in field; assay type: in vivo; details: 250, 500, 750 g ai/ha, 4 applications; until 20 days after the last application (FIG. 19)
Protocol: Four replicates of 10 vines (33.6 m^2 per plot) were treated with 8 l of spray solution, corresponding with a spray volume of […], according to local practice. The spray mix contained a concentration of active ingredient as described in Table 3. Four applications were done at specific phenological development stages of the vines: BBCH 77, BBCH 79, BBCH 81 and BBCH 85 (according to the standardised BBCH-scale). No artificial infection was performed, and first spray was placed preventative, based on forecasted disease pressure. The efficacy of 10G11 was compared to that of a non-treated control and the chemical reference Teldor (Fenhexamid). In addition, a chemical rotation of Switch (Fludioxonil+cyprodinil) and Teldor and a rotation of Switch and 10G11 was tested.
Disease severity is recorded as percent severity on a scale of 0-100% (PESSEV). Recording started when first symptoms appeared, just prior to the fourth application. Additional assessments were performed 13 and 20 days after the last application. At each assessment, the percentage of grape bunch surface affected by the disease was estimated on 100 randomly selected bunches per plot.

Uncinula necator = experiment: Control of powdery mildew on grapevine in field; assay type: in vivo; details: 250, 500, 750 g ai/ha, 8 applications, until four weeks after application
Protocol: Four replicates of 10 vines (25 m^2 per plot) were treated with 8 or 10 l of spray solution, corresponding with a spray volume of […], according to local practice and growth stage of the vines. The spray mix contained a concentration of active ingredient as described in Table 4. Eight applications were performed, spaced on average 10 days apart. No artificial infection was performed and first spray was at pre-bloom stage, before first powdery mildew symptoms. The efficacy 10G11 was compared to that of a non-treated control and the chemical reference Topas 10 EC (Penconazole). In addition, a chemical rotation of Tiovit Jet (sulphur), Vivando (Metrafenon), Sercadis (Fluxapyroxad), Prosper 500 EC (Spiroxamine) and Karathane Star (Meptyldinocap) was evaluated. A seventh treatment replaced part of the chemicals in this chemical rotation by 10G11 as described in Table 4.
Efficacy assessments were performed on leaves by evaluating the percentage of leaf area affected on 100 leaves randomly selected from the same position on the shoot. In addition, powdery mildew infection on fruits was assessed as the percentage of infected area of 50 randomly selected bunches per plot. Assessments continued until 4 weeks after the last application.

B1: 10G11: VHH polypeptide, SEQ ID NO: 2, begins with a D residue (protein)
VHH: DVQLVESGGGLVQAGGSLRLSCAASRSIFSINAMDWYRQAPGKQREWVAGITRGGTTKYADSVKGRFTISRDNAKKKVYLQMNSLKPEDTAVYYCNVLRGEQPWTRDYWGQGTQVTVSS
Oidium neolycopersici; mild disease pressure (FIG. 22)
  severity of powdery mildew on tomato (percentage of leaf area affected): clear and dose-related performance
Oidium neolycopersici; mild disease pressure (FIG. 23)
  incidence (PESINC) of powdery mildew on tomato: clear and dose-related performance
Fraction 3
  binding to Fraction 3 by BLI: confirmed binding
Phakopsora pachyrhizi; 250, 500, 750 g ai/ha, 2 applications, until 3 weeks after the second application, vs reference VHH and non-treated inoculated control (FIG. 15)
  percent severity of Asian soybean rust, lower canopy: prominent and dose-related growth inhibition pattern
Phakopsora pachyrhizi; 250, 500, 750 g ai/ha, 2 applications, until 3 weeks after the second application, vs reference VHH and non-treated inoculated control (FIG. 16)
  percent severity of Asian soybean rust, mid canopy: prominent and dose-related growth inhibition pattern
Phakopsora pachyrhizi; 250, 500, 750 g ai/ha, 2 applications, until 3 weeks after the second application, vs reference VHH and non-treated inoculated control (FIG. 17)
  percent severity of Asian soybean rust, upper canopy: prominent and dose-related growth inhibition pattern
Phakopsora pachyrhizi; 750 g ai/ha
  activity compared with chemical reference Quadris Top SBX: on par
Botrytis cinerea
  percent severity (PESSEV) of Botrytis cinerea on grape bunches: clear and dose-related performance
Uncinula necator; very high disease pressure (FIG. 20)
  severity of powdery mildew on grape leaves (percentage of leaf area affected): clear and dose-related performance
Uncinula necator; very high disease pressure (FIG. 21)
  severity of powdery mildew on grape bunches (percentage of infected area): clear and dose-related performance

Reference: patent US12098378B2, “Anti-fungal polypeptides” (priority 2020, dated 2024)
